In publication PMC4576200 (Viruses, 2015):

Target: the molecule itself
Assay: AUC

B1: gp5β-BC, solvent-exposed part of the β-helical domain of bacteriophage T4 gene product 5 (residues 483–575) (domain or fragment, UniProt P16009 483-575, looked up)
chain: RGDETKTVEGNGTILVKGNVTIIVEGNADITVKGDATTLVEGNQTNTVNGNLSWKVAGTVDWDVGGDWTEKMASMSSISSGQYTIDGSRIDIG
Q: How did the “stoichiometry N” value turn out when B1 was run?
A: 3
